In publication PMC6598175:

Substrate: Cc1cc(=O)oc2cc(O[C@@H]3OC[C@@H](O[C@@H]4OC[C@@H](O)[C@H](O)[C@H]4O)[C@H](O)[C@H]3O)ccc12
Assay: Substrate hydrolysis kinetics
Type: biochemical, A. aculeatus
Conditions: other: fluorogenic 4MU substrate, pH 5.0

B1: …_127619 (Aspergillus aculeatus ATCC 16872) (protein)
chain: VGLDQAAVAKGLQYFGTATDNPELTDIPYVTQLNNTADFGQITPGNSMKWDATEPSQGTFTFTNGDVIADLAEGNGQYLRCHTLVWYNQLPSWVTSGTWTNATLTAALKNHITNVVSHYKGKCLHWDVVNEALNDDGTYRTNIFYTTIGEAYIPIAFAAAAAADPDAKLFYNDYNLEYGGAKAASARAIVQLVKNAGAKIDGVGLQAHFSVGTVPSTSSLISVLQSFTALGVEVAYTEADVRILLPTTATTLAQQSSDFQALVQSCVQTTGCVGFTIWDWTDKYSWVPSTFSGYGAALPWDENLVKKPAYNGLLAG
  Km: 279 µM
